Results published in the RNAGym collection of RNA variant scans (doi:10.7554/elife.80360).

B1: Hairpin Ribozyme (parent)
chain: GUCCUCUUUCACGUGCGCGUGAAAGAGAGAAGUGAACCAGAGAAACACACGUUGUGGUAUAUUACCUGGUA

Variants of: B1
Assay: self-cleavage, relative activity (ratio to wild type); higher = more cleavage; co-transcriptional

| Variant | self-cleavage |
| --- | --- |
| GUCCUCUUUCACGUACGCGUGAAAGAGAGAAGUGAACCAGAGAAACACACGUUGUGGGAUAUUACCUGGUA | 0.501 |
| GUCCUCUUUCACGUACGCGUGAAAGAGAGAAGUGAACCAGAGAAACACACGUUGUGGAAUAUUACCUGGUA | 0.533 |
| GUCCUCUUUCACGUCCGCGUGAAAGAGAGAAGUGAGCCAGAGAAACACACGUUGUGGUAUAUUACCUGGUA | 1.06 |
| GUCCUCUUUCACGUCCGCGUGAAAGAGAGAAGUGACCCAGAGAAACACACGUUGUGGUAUAUUACCUGGUA | 0.678 |
| GUCCUCUUUCACGUCCGCGUGAAAGAGAGAAGUGGACCAGAGAAACACACGUUGUGGUAUAUUACCUGGUA | 1.08 |
| GUCCUCUUUCACGUACGCGUGAAAGAGAGAAGUGAACCAGAGAUACACACGUUGUGGUAUAUUACCUGGUA | 0.196 |
| GUCCUCUUUCACGUACGCGUGAAAGAGAGAAGUGAACCAGAGACACACACGUUGUGGUAUAUUACCUGGUA | 0.143 |
| GUCCUCUUUCACGUACGCGUGAAAGAGAGAAGUGAACCAGAGAAACACACGUUGUGGUAUAUCACCUGGUA | 0.0715 |
| GUCCUCUUUCACGUACGCGUGAAAGAGAGAAGUGAACCAGAGAAACACACGUUGUGGUAUAUAACCUGGUA | 0.116 |
| GUCCUCUUUCACGUACGCGUGAAAGAGAGAAGUGAACCAGAGAAACACACGUUGUGGUAUAUGACCUGGUA | 0.0686 |
| GUCCUCUUUCACGUACGCGUGAAGGAGAGAAGUGAACCAGAGAAACACACGUUGUGGUAUAUUACCUGGUA | 0.963 |
| GUCCUCUUUCACGUACGCGUGAACGAGAGAAGUGAACCAGAGAAACACACGUUGUGGUAUAUUACCUGGUA | 0.899 |
| GUCCUCUUUCACGUACGCGUGAAAGAGAGAAAUGAACCAGAGAAACACACGUUGUGGUAUAUUACCUGGUA | 0.145 |
| GUCCUCUUUCACGUACGCGUGAAAGAGAGAAUUGAACCAGAGAAACACACGUUGUGGUAUAUUACCUGGUA | 0.0825 |
| GUCCUCUUUCACGUACGCGUGAAAGAGAGAAGUGAACCAGAGAAACACACGUUGCGGUAUAUUACCUGGUA | 0.225 |
| GUCCUCUUUCACGUACGCGUGAAAGAGAGAAGUGAACCAGAGAAACACACGGUGUGGUAUAUUACCUGGUA | 0.641 |
| GUCCUCUUUCACGUACGCGUGAAAGACAGAAGUGAACCAGAGAAACACACGUUGUGGUAUAUUACCUGGUA | 0.146 |
| GUCCUCUUUCACGGGCGCGUGAAAGAGAGAAGUGAACCAGAGAAACACACGUUGUGGUAUAUUACCUGGCA | 1.13 |
| GUCCUCUUUCACGGGCGCGUGAAAGAGAGAAGUGAACCAGAGAAACACACGUUGUGGUAUAUUACCUGGGA | 0.659 |
| GUCCUCUUUCACGUAUGCGUGAAAGAGAGAAGUGAACCAGAGAAACACACGUUGUGGUAUAUUACCUGGUA | 1.01 |
| GUCCUCUUUCACGUACGCGUGAAAGAGACAAGUGAACCAGAGAAACACACGUUGUGGUAUAUUACCUGGUA | 0.106 |
| GUCCUCUUUCACGUACCCGUGAAAGAGAGAAGUGAACCAGAGAAACACACGUUGUGGUAUAUUACCUGGUA | 0.83 |
| GUCCUCUUUCACGUACGCGUGAAAGAGAGAAGUGAACCAGAGAAACACACGUUGUGGUAUAUUACCUUGUA | 0.232 |
| GUCCUCUUUCACGUACGCGUGAAAGAGAGAGGUGAACCAGAGAAACACACGUUGUGGUAUAUUACCUGGUA | 0.586 |
| GUCCUCUUUCACGUACGCGUGAAAGAGAGAUGUGAACCAGAGAAACACACGUUGUGGUAUAUUACCUGGUA | 0.133 |
| GUCCUCUUUCACGUACGCGUGACAGAGAGAAGUGAACCAGAGAAACACACGUUGUGGUAUAUUACCUGGUA | 0.877 |

| Variant | self-cleavage |
| --- | --- |
| GUCCUCUUUCACGUACGCGUGAAAGAGAGAAGUGAACCAGUGAAACACACGUUGUGGUAUAUUACCUGGUA | 1.26 |
| GUCCUCUUUCACGUCCGCGUGACAGAGAGAAGUGAACCAGAGAAACACACGUUGUGGUAUAUUACCUGGUA | 0.868 |
| GUCCUCUUUCACGUCCGCGUGAUAGAGAGAAGUGAACCAGAGAAACACACGUUGUGGUAUAUUACCUGGUA | 1.02 |
| GUCCUCUUUCACGUACGCGUGAAAGAGAGAAGUGAACCAGAGAAACACACGUUGUGGUAUAUUACCUGAUA | 0.362 |
| GUCCUCUUUCACGUACGCGUGAAAGAGAGAAGUGAACCAGAGAAACACACGUUGUGGUAUAUUACCUGUUA | 0.217 |
| GUCCUCUUUCACGUACGUGUGAAAGAGAGAAGUGAACCAGAGAAACACACGUUGUGGUAUAUUACCUGGUA | 1.05 |
| GUCCUCUUUCACGUACGCGGGAAAGAGAGAAGUGAACCAGAGAAACACACGUUGUGGUAUAUUACCUGGUA | 0.85 |
| GUCCUCUUUCACGUCCGCGUGAAAGCGAGAAGUGAACCAGAGAAACACACGUUGUGGUAUAUUACCUGGUA | 0.834 |
| GUCCUCUUUCACGUCCGCGUGAAAGAGCGAAGUGAACCAGAGAAACACACGUUGUGGUAUAUUACCUGGUA | 0.407 |
| GUCCUCUUUCACGUCCGCGUGAAAGAGGGAAGUGAACCAGAGAAACACACGUUGUGGUAUAUUACCUGGUA | 1.29 |
| GUCCUCUUUCACGUACGCGUGAAAGAGAGAAGUGAACGAGAGAAACACACGUUGUGGUAUAUUACCUGGUA | 0.297 |
| GUCCUCUUUCACGUACGCGUGAAAGAGAGAAGUGAACAAGAGAAACACACGUUGUGGUAUAUUACCUGGUA | 0.148 |
| GUCCUCUUUCACGUACGCGUGAAAGAGGGAAGUGAACCAGAGAAACACACGUUGUGGUAUAUUACCUGGUA | 0.978 |
| GUCCUCUUUCACGUACGCGUGAAAGAGCGAAGUGAACCAGAGAAACACACGUUGUGGUAUAUUACCUGGUA | 0.586 |
| GUCCUCUUUCACGUCCGCGUGAAAGAGAGAAGUGAACCAGAGAACCACACGUUGUGGUAUAUUACCUGGUA | 0.18 |
| GUCCUCUUUCACGUACGCGUGAAAGAGAGGAGUGAACCAGAGAAACACACGUUGUGGUAUAUUACCUGGUA | 0.187 |
| GUCCUCUUUCACGUACGCGUGAAAGAGAGAAGUGGACCAGAGAAACACACGUUGUGGUAUAUUACCUGGUA | 0.934 |
| GUCCUCUUUCACGUACGCGUGAAAGAGAGAAGUGAACCAGAGUAACACACGUUGUGGUAUAUUACCUGGUA | 0.178 |
| GUCCUCUUUCACGUACGCGUGAAAGAGAGAAGUGAACCAGAGGAACACACGUUGUGGUAUAUUACCUGGUA | 0.155 |
| GUCCUCUUUCACGUCCGCGUGUAAGAGAGAAGUGAACCAGAGAAACACACGUUGUGGUAUAUUACCUGGUA | 1.01 |
| GUCCUCUUUCACGUACGCGUGAAAGAGAGAAGUGAACCAGAGAAACACACGUUGUGGUAUAUUACUUGGUA | 0.35 |
| GUCCUCUUUCACGUACGCGUGAAAGAGAGAAGCGAACCAGAGAAACACACGUUGUGGUAUAUUACCUGGUA | 0.117 |
| GUCCUCUUUCACGUACGCGUGAAAGAGAGAAGAGAACCAGAGAAACACACGUUGUGGUAUAUUACCUGGUA | 0.0921 |
| GUCCUCUUUCACGUCCGCGUGAAAGAGAGAAGUGAACCAGAGAAACUCACGUUGUGGUAUAUUACCUGGUA | 0.142 |
| GUCCUCUUUCACGUACGCGUGAAAGAGAGAAGUGAACCAGAGAAACACACGUUGUGGUACAUUACCUGGUA | 0.853 |
| GUCCUCUUUCACGUCCGCGUGAAUGAGAGAAGUGAACCAGAGAAACACACGUUGUGGUAUAUUACCUGGUA | 0.884 |

| Variant | self-cleavage |
| --- | --- |
| GUCCUCUUUCACGUACGCGUGAAAGAGAGAAGUGAACCAGAGAAGCACACGUUGUGGUAUAUUACCUGGUA | 0.17 |
| GUCCUCUUUCACGUACGCGUGAAAGAGAGAAGUGAACCAGAGAAACACACGUUGUGGUCUAUUACCUGGUA | 0.182 |
| GUCCUCUUUCACGUACGCGUGAAAGAGAGAAGUGAACCAGAGAAACACACGUUGUGGUUUAUUACCUGGUA | 0.213 |
| GUCCUCUUUCACGUACGCGUGAAAGAGAGAAGUGAACCAGAGAAACACACGUUGUUGUAUAUUACCUGGUA | 0.134 |
| GUCCUCUUUCACGUACGCGUGAAAGCGAGAAGUGAACCAGAGAAACACACGUUGUGGUAUAUUACCUGGUA | 0.93 |
| GUCCUCUUUCACGUACGCGUGAAAGAGAGAAGUGAAGCAGAGAAACACACGUUGUGGUAUAUUACCUGGUA | 0.312 |
| GUCCUCUUUCACGUACGCGUGAAAGAGAGAAGUGAAACAGAGAAACACACGUUGUGGUAUAUUACCUGGUA | 0.388 |
| GUCCUCUUUCACGUACGCGUGAAAGAGAGAAGUGAAUCAGAGAAACACACGUUGUGGUAUAUUACCUGGUA | 0.699 |
| GUCCUCUUUCACGUACGCGUGAAAGAGAGAAGUGAACCAGAGAAACACUCGUUGUGGUAUAUUACCUGGUA | 0.149 |
| GUCCUCUUUCACGUACGCGUGAAAGAGAGAAGUGAACCAGAGAAACACGCGUUGUGGUAUAUUACCUGGUA | 0.527 |
| GUCCUCUUUCACGUACGCGUGAAAGAGAGAAGUGAACCAGAAAAACACACGUUGUGGUAUAUUACCUGGUA | 0.15 |
| GUCCUCUUUCACGUACGCGUGAAACAGAGAAGUGAACCAGAGAAACACACGUUGUGGUAUAUUACCUGGUA | 0.491 |
| GUCCUCUUUCACGUACGCGUGAAAGAGAGAAGUGAACCAUAGAAACACACGUUGUGGUAUAUUACCUGGUA | 0.111 |
| GUCCUCUUUCACGUACGCGUGAAAGAGAGAAGUGAACCAGAGAAACACACCUUGUGGUAUAUUACCUGGUA | 0.79 |
| GUCCUCUUUCACGUACGCGUGAAAGAGAGAAGUGAACCAGAGAAACACACUUUGUGGUAUAUUACCUGGUA | 0.82 |
| GUCCUCUUUCACGUCCGCGUGAAAGAGAGACGUGAACCAGAGAAACACACGUUGUGGUAUAUUACCUGGUA | 0.206 |
| GUCCUCUUUCACGGGCGCGUGAAAGAGAGAAGUGAACCAGAGAAACACACGUUGUGGUAUACUACCUGGUA | 0.213 |
| GUCCUCUUUCACGUCCGCGUGAAAGAGAGAAGUGAACCAGAGUAACACACGUUGUGGUAUAUUACCUGGUA | 0.126 |
| GUCCUCUUUCACGGGCGCGUGAAAGAGAGAAGUGAACCAGAGAAACACACGUUGUGGUAUAUAACCUGGUA | 0.217 |
| GUCCUCUUUCACGUACGCGUGAAAGAGAGAAGUGAACCAGAGAAACCCACGUUGUGGUAUAUUACCUGGUA | 0.302 |
| GUCCUCUUUCACGGGCGCGUGAAAGAGAGAAGUGAACCAGAGAAACACACGUUGUGGUAUAUUACCAGGUA | 0.186 |
| GUCCUCUUUCACGGGCGCGUGAAAGAGAGAAGUGAACCAGAGAAACACACGUUGUGGUAUAUUACCCGGUA | 0.145 |
| GUCCUCUUUCACGUCCGCGUGAAAGAGAGAAGUGAACCUGAGAAACACACGUUGUGGUAUAUUACCUGGUA | 0.402 |
| GUCCUCUUUCACGUCCGCGUGAAAGAGAGAAGUGAACCCGAGAAACACACGUUGUGGUAUAUUACCUGGUA | 0.463 |
